Results as given in US7033832.

Biological target: chicken N-cadherin (expressed from pMiwcN vector on LN2 mouse L cell transfectants) (chicken) (UniProt P10288)
Test: flow cytometry of LN2 cells stained with NCD2 and FITC secondary antibody

UniProt P10288, sequence (P10288 165-912): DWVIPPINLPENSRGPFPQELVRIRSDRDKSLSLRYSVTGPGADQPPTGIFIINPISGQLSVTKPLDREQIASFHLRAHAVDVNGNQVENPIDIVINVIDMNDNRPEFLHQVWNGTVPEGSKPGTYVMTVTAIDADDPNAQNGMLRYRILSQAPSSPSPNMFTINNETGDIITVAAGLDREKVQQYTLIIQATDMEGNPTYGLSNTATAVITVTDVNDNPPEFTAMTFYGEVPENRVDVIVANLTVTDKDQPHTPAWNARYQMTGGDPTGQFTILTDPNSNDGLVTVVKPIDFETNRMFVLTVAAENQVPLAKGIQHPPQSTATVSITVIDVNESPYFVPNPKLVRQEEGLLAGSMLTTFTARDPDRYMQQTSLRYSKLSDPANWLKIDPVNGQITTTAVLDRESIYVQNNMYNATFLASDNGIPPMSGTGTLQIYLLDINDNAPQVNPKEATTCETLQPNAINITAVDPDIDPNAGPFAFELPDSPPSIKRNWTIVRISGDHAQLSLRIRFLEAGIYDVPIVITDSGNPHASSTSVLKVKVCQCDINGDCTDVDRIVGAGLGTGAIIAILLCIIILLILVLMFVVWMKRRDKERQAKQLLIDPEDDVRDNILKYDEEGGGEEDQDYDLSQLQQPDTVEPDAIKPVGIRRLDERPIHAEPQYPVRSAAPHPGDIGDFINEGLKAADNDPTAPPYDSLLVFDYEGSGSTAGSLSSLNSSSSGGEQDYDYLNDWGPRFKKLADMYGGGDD

“anti-chicken-N-Cadherin antibody (NCD2, Zymed, San Francisco, Calif.)” gave a mean channel fluorescence (mcf) of 26.5 mcf.
